Assays:
[1] = molecular target: VDR:RXRa (Homo sapiens, UniProt P11473;P19793 full;full); experiment: no ligand; PBM; 270 nM : 90 nM RXRa; PBS pH 7.4, 2% milk, 0.02% Triton X-100, 1 mM DTT, BSA, 0.4 mg/ml salmon testes DNA; details: tags: His kept;His cleaved; copies: 1;1; label: surface-attached array probe
Outline: (§1)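 On custom Agilent 4×180K arrays, double-stranded probes with 34-nt variable regions carried direct-repeat seeds, single-nucleotide variants, half-site ablations or random human genomic background. Ligand-free nuclear receptor dimers were applied for 1 h, and binding was read with antibodies against each partner (one per run). Binding z-scores come from regression-normalized fluorescence, with the random background probes as reference.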

[2] = molecular target: PXR:RXRa (Homo sapiens, UniProt O75469;P19793 full;full); experiment: as above; details: tags: His kept;His cleaved; copies: 1;1; label: surface-attached array probe
PXR:RXRa, sequence (O75469 whole entry, chain 1 of 2): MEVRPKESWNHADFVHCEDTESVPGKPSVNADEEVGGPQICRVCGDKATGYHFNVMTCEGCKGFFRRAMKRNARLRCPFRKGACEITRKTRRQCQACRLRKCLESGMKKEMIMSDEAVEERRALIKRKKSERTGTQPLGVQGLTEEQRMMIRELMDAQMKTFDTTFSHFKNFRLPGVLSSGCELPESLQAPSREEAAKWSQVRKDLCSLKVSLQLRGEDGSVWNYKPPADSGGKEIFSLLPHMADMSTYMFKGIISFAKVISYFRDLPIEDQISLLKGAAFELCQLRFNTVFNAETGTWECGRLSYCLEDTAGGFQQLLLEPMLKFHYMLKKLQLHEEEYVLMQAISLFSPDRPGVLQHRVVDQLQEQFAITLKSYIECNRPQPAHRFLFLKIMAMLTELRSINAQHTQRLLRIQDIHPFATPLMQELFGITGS
PXR:RXRa, sequence (P19793 whole entry, chain 2 of 2): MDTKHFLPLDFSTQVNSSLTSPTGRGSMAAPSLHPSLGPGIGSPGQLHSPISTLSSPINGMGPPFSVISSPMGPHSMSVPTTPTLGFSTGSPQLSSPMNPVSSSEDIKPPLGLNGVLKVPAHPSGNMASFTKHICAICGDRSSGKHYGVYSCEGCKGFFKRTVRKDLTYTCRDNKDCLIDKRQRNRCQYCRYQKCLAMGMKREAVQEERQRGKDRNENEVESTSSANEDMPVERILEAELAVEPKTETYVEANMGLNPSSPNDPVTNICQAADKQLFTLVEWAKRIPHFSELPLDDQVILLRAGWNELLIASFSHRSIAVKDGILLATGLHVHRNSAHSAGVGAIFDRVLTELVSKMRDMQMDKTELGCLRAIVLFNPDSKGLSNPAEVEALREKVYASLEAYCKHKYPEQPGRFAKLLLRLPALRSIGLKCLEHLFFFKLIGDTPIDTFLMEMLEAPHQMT
Outline: as §1

[3] = molecular target: RXRa (Homo sapiens, UniProt P19793); experiment: no ligand; PBM; 180 nM; PBS pH 7.4, 2% milk, 0.02% Triton X-100, 1 mM DTT, BSA, 0.4 mg/ml salmon testes DNA; details: tags: His cleaved; chain copies: 2; label: surface-attached array probe
RXRa, sequence (P19793 whole entry): as the sequence (P19793 whole entry, chain 2 of 2) above

[4] = molecular target: RARg:RXRa (Homo sapiens, UniProt P13631;P19793 full;full); experiment: no ligand; PBM; 270 nM : 90 nM RXRa; PBS pH 7.4, 2% milk, 0.02% Triton X-100, 1 mM DTT, BSA, 0.4 mg/ml salmon testes DNA; details: tags: His kept;His cleaved; copies: 1;1; label: surface-attached array probe
RARg:RXRa, sequence (P13631 whole entry, chain 1 of 2): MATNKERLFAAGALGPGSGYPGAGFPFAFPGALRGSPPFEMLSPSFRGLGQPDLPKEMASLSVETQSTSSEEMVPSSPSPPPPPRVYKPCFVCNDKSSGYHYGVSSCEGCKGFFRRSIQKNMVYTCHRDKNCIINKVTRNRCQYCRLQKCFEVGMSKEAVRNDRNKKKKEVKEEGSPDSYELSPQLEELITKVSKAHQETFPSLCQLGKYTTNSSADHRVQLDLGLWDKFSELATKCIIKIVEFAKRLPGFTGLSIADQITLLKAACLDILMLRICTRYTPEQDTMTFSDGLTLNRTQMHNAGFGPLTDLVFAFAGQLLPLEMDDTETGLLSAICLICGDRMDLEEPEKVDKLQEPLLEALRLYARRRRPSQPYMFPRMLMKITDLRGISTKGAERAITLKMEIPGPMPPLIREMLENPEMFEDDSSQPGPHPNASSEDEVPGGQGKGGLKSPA
RARg:RXRa, sequence (P19793 whole entry, chain 2 of 2): as the sequence (P19793 whole entry, chain 2 of 2) above
Outline: as §1

[5] = molecular target: RARb:RXRa (Homo sapiens, UniProt P10826;P19793 full;full); experiment: as above; details: tags: His kept;His cleaved; copies: 1;1; label: surface-attached array probe
RARb:RXRa, sequence (P10826 whole entry, chain 1 of 2): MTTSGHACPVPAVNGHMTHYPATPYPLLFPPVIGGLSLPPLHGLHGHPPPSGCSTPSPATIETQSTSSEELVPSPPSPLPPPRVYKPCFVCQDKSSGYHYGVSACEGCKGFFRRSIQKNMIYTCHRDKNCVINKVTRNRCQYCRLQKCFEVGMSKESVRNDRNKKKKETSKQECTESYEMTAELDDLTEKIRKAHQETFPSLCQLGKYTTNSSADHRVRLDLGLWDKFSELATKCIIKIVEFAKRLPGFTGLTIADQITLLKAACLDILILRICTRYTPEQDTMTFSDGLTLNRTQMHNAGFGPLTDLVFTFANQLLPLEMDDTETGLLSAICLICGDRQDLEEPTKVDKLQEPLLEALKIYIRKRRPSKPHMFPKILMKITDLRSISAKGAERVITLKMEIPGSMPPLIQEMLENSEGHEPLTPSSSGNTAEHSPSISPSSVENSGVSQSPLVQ
RARb:RXRa, sequence (P19793 whole entry, chain 2 of 2): as the sequence (P19793 whole entry, chain 2 of 2) above
Outline: as §1

[6] = molecular target: LXRb:RXRa (Homo sapiens, UniProt P55055;P19793 full;full); experiment: as above; details: tags: His kept;His cleaved; copies: 1;1; label: surface-attached array probe
LXRb:RXRa, sequence (P55055 whole entry, chain 1 of 2): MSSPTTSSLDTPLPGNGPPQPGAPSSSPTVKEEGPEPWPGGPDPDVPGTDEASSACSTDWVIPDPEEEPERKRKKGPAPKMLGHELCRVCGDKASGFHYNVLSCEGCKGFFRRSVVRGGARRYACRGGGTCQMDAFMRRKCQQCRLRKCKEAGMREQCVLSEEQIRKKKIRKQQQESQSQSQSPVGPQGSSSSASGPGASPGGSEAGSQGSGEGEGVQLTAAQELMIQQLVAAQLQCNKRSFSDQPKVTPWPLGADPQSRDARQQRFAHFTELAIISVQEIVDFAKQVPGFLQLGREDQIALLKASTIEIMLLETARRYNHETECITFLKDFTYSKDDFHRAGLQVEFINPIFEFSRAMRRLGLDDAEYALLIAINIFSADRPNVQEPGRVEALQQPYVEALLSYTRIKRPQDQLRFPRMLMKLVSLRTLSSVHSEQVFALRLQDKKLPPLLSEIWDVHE
LXRb:RXRa, sequence (P19793 whole entry, chain 2 of 2): as the sequence (P19793 whole entry, chain 2 of 2) above
Outline: as §1

[7] = molecular target: PPARa:RXRa (Homo sapiens, UniProt Q07869;P19793 full;full); experiment: as above; details: tags: GST kept;His cleaved; copies: 1;1; label: surface-attached array probe
PPARa:RXRa, sequence (Q07869 whole entry, chain 1 of 2): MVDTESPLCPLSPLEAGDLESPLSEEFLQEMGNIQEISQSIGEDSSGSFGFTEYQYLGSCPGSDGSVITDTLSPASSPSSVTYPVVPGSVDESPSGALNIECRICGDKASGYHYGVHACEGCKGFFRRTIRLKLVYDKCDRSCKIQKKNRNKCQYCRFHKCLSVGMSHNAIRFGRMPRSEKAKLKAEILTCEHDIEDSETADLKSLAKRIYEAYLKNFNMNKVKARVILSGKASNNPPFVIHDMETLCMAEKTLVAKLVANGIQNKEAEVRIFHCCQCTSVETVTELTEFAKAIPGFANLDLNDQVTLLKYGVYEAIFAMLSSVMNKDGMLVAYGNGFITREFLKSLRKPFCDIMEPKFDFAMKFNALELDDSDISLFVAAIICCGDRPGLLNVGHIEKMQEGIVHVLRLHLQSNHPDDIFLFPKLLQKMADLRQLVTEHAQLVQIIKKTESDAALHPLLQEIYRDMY
PPARa:RXRa, sequence (P19793 whole entry, chain 2 of 2): as the sequence (P19793 whole entry, chain 2 of 2) above
Outline: as §1

[8] = molecular target: FXR:RXRa (Homo sapiens, UniProt Q96RI1;P19793 full;full); experiment: as above; details: tags: His kept;His cleaved; copies: 1;1; label: surface-attached array probe
FXR:RXRa, sequence (Q96RI1 whole entry, chain 1 of 2): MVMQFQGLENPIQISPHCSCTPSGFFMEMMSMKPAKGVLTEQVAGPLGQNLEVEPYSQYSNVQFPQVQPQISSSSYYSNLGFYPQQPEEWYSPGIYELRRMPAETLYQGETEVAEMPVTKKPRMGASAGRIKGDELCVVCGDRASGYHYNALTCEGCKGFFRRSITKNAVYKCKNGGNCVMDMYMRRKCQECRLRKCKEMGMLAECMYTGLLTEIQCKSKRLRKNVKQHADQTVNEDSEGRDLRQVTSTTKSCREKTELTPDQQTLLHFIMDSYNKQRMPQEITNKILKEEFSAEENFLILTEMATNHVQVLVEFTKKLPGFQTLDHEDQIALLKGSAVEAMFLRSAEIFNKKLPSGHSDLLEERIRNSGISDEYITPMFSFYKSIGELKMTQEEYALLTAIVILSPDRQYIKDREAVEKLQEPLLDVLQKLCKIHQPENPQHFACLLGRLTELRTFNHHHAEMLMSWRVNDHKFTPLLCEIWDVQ
FXR:RXRa, sequence (P19793 whole entry, chain 2 of 2): as the sequence (P19793 whole entry, chain 2 of 2) above
Outline: as §1

VDR:RXRa, sequence (P11473 whole entry, chain 1 of 2): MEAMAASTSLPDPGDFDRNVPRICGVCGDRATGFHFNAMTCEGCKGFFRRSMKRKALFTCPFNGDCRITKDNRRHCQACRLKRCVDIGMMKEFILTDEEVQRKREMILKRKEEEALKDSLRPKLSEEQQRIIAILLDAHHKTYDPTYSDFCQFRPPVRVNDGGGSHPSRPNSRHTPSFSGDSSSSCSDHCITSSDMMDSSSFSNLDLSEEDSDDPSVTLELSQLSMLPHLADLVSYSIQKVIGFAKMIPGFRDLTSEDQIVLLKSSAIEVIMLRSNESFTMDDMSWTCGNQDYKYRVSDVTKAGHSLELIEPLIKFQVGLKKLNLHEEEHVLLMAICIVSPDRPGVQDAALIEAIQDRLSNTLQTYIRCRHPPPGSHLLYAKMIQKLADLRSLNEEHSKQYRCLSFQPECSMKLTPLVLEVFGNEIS
VDR:RXRa, sequence (P19793 whole entry, chain 2 of 2): as the sequence (P19793 whole entry, chain 2 of 2) above

Binder | binding signal [1] | binding signal [2] | binding signal [3] | also measured
NRC3_wobSeed89_DR3_G16C_o1 (dsDNA) DNA 1: GCCTATGTAGGTTAACGGGGTCATTCAGTTTGAAAGGCGATTGACAGCGTAGAATGAAGG DNA 2: CCTTCATTCTACGCTGTCAATCGCCTTTCAAACTGAATGACCCCGTTAACCTACATAGGC | 8.07 PBM z-score against 500 random probes | 6.67 PBM z-score against 500 random probes | – | –
NRC3_wobSeed121_DR5_A19G_o1 (dsDNA) DNA 1: GCCAAACTAGGTCACCGGGAGGTCAAAGTCCGCATGGCGATTGACAGCGTAGAATGAAGG DNA 2: CCTTCATTCTACGCTGTCAATCGCCATGCGGACTTTGACCTCCCGGTGACCTAGTTTGGC | 6.81 PBM z-score against 500 random probes | 6.61 PBM z-score against 500 random probes | – | –
NRC3_random_hg19_344_o1 (dsDNA) DNA 1: GCCGGAAGAGAATTCTTGCCTGCCCACTGGTAGAATGCGATTGACAGCGTAGAATGAAGG DNA 2: CCTTCATTCTACGCTGTCAATCGCATTCTACCAGTGGGCAGGCAAGAATTCTCTTCCGGC | – | -0.71 PBM z-score against 500 random probes | -0.83 PBM z-score against 500 random probes | –
NRC3_wobSeed137_DR5_C19G_o1 (dsDNA) DNA 1: GCATATGTAGGTTACATCGGGGTCATTCAGGCTATGGCGATTGACAGCGTAGAATGAAGG DNA 2: CCTTCATTCTACGCTGTCAATCGCCATAGCCTGAATGACCCCGATGTAACCTACATATGC | 6.54 PBM z-score against 500 random probes | 6.55 PBM z-score against 500 random probes | – | –
NRC3_random_hg19_102_o1 (dsDNA) DNA 1: GCCAGATGAAATGACCAGGCTGTTACCAGGGTCTATGCGATTGACAGCGTAGAATGAAGG DNA 2: CCTTCATTCTACGCTGTCAATCGCATAGACCCTGGTAACAGCCTGGTCATTTCATCTGGC | – | -0.16 PBM z-score against 500 random probes | 0.48 PBM z-score against 500 random probes | binding signal [4]: 0.17 PBM z-score against 500 random probes
NRC3_wobSeed109_DR4_G21T_o1 (dsDNA) DNA 1: GCCGTCCAAGGTCATAGGAGTTCAGTGAAGACAGATGCGATTGACAGCGTAGAATGAAGG DNA 2: CCTTCATTCTACGCTGTCAATCGCATCTGTCTTCACTGAACTCCTATGACCTTGGACGGC | 7.28 PBM z-score against 500 random probes | 7.41 PBM z-score against 500 random probes | – | –
NRC3_wobSeed109_DR4_G17C_o1 (dsDNA) DNA 1: GCCGTCCAAGGTCATACGAGGTCAGTGAAGACAGATGCGATTGACAGCGTAGAATGAAGG DNA 2: CCTTCATTCTACGCTGTCAATCGCATCTGTCTTCACTGACCTCGTATGACCTTGGACGGC | 7.31 PBM z-score against 500 random probes | 7.4 PBM z-score against 500 random probes | – | –
NRC3_wobSeed75_DR3_A12T_o1 (dsDNA) DNA 1: GCTCTCGGAGGTCACGAAGGTCAGAGCTTTCCAGAGGCGATTGACAGCGTAGAATGAAGG DNA 2: CCTTCATTCTACGCTGTCAATCGCCTCTGGAAAGCTCTGACCTTCGTGACCTCCGAGAGC | 7.51 PBM z-score against 500 random probes | 6.46 PBM z-score against 500 random probes | 8.41 PBM z-score against 500 random probes | binding signal [5]: 5.84 PBM z-score against 500 random probes; binding signal [4]: 7.62 PBM z-score against 500 random probes
NRC3_random_hg19_432_o1 (dsDNA) DNA 1: GCATGTCAATGGTAGTTTGATGGGAATAGTATTGAGGCGATTGACAGCGTAGAATGAAGG DNA 2: CCTTCATTCTACGCTGTCAATCGCCTCAATACTATTCCCATCAAACTACCATTGACATGC | – | -0.12 PBM z-score against 500 random probes | 0.02 PBM z-score against 500 random probes | –
NRC3_wobSeed95_DR3_G22C_o1 (dsDNA) DNA 1: GCAGAACGAGGGCAATGAGTTCATAGCACGGGTGGCGCGATTGACAGCGTAGAATGAAGG DNA 2: CCTTCATTCTACGCTGTCAATCGCGCCACCCGTGCTATGAACTCATTGCCCTCGTTCTGC | 8.01 PBM z-score against 500 random probes | 7.08 PBM z-score against 500 random probes | – | –
NRC3_wobSeed13_DR0_A14T_o1 (dsDNA) DNA 1: GCCGTCCAAGGTCTAGGTCAGTGAAAGAGACTCGAAGCGATTGACAGCGTAGAATGAAGG DNA 2: CCTTCATTCTACGCTGTCAATCGCTTCGAGTCTCTTTCACTGACCTAGACCTTGGACGGC | – | 0.19 PBM z-score against 500 random probes | – | binding signal [6]: 0.12 PBM z-score against 500 random probes
NRC3_random_hg19_219_o1 (dsDNA) DNA 1: GCTATAGCTCACAACCTCATACCAGGAAGGGCTCAGGCGATTGACAGCGTAGAATGAAGG DNA 2: CCTTCATTCTACGCTGTCAATCGCCTGAGCCCTTCCTGGTATGAGGTTGTGAGCTATAGC | – | -0.27 PBM z-score against 500 random probes | – | binding signal [5]: -0.28 PBM z-score against 500 random probes
NRC3_random_hg19_237_o1 (dsDNA) DNA 1: GCTGCAGAGAGGCCACCAGCCAGCCCAGACCCATGCGCGATTGACAGCGTAGAATGAAGG DNA 2: CCTTCATTCTACGCTGTCAATCGCGCATGGGTCTGGGCTGGCTGGTGGCCTCTCTGCAGC | – | -0.57 PBM z-score against 500 random probes | 0.12 PBM z-score against 500 random probes | –
NRC3_wobSeed37_DR1_A8G_o1 (dsDNA) DNA 1: GCCGTCCGAGGTCAAAGGTCAGTGAAGAGATGACGGGCGATTGACAGCGTAGAATGAAGG DNA 2: CCTTCATTCTACGCTGTCAATCGCCCGTCATCTCTTCACTGACCTTTGACCTCGGACGGC | 7.2 PBM z-score against 500 random probes | 7.4 PBM z-score against 500 random probes | – | –
NRC3_random_hg19_464_o1 (dsDNA) DNA 1: GCAGAACCTCATTGCTTATCGCACAGATGAGATGCGGCGATTGACAGCGTAGAATGAAGG DNA 2: CCTTCATTCTACGCTGTCAATCGCCGCATCTCATCTGTGCGATAAGCAATGAGGTTCTGC | – | -0.05 PBM z-score against 500 random probes | 0.3 PBM z-score against 500 random probes | binding signal [7]: -0.25 PBM z-score against 500 random probes
NRC3_wobSeed113_DR4_T13C_o1 (dsDNA) DNA 1: GCATATGTAGGTCAGCTGGGGTCATTCAGACTAGGCGCGATTGACAGCGTAGAATGAAGG DNA 2: CCTTCATTCTACGCTGTCAATCGCGCCTAGTCTGAATGACCCCAGCTGACCTACATATGC | 7.24 PBM z-score against 500 random probes | 7.5 PBM z-score against 500 random probes | – | –
NRC3_wobSeed143_DR5_G12T_o1 (dsDNA) DNA 1: GCAGAACGAGGTCACGCTGAGTTGATAGCAGAGTAGGCGATTGACAGCGTAGAATGAAGG DNA 2: CCTTCATTCTACGCTGTCAATCGCCTACTCTGCTATCAACTCAGCGTGACCTCGTTCTGC | 6.66 PBM z-score against 500 random probes | 6.45 PBM z-score against 500 random probes | 8.4 PBM z-score against 500 random probes | binding signal [5]: 5.54 PBM z-score against 500 random probes; binding signal [8]: 8.27 PBM z-score against 500 random probes; binding signal [4]: 7.45 PBM z-score against 500 random probes
NRC3_wobSeed85_DR3_G24C_o1 (dsDNA) DNA 1: GCCGTCCAAGGTCAGAGAGGTCACTGAATGCCGAGTGCGATTGACAGCGTAGAATGAAGG DNA 2: CCTTCATTCTACGCTGTCAATCGCACTCGGCATTCAGTGACCTCTCTGACCTTGGACGGC | 7.9 PBM z-score against 500 random probes | 6.76 PBM z-score against 500 random probes | – | –
NRC3_wobSeed119_DR4_G12T_o1 (dsDNA) DNA 1: GCGGAACGAGGTCATTCGAGTTGATAGCATGGCGATGCGATTGACAGCGTAGAATGAAGG DNA 2: CCTTCATTCTACGCTGTCAATCGCATCGCCATGCTATCAACTCGAATGACCTCGTTCCGC | 6.76 PBM z-score against 500 random probes | 6.69 PBM z-score against 500 random probes | – | binding signal [8]: 7.77 PBM z-score against 500 random probes
NRC3_wobSeed34_DR1_G6A_o1 (dsDNA) DNA 1: GCATCAAAAGGTCGAAGGTGAGTATACCCACCCGAAGCGATTGACAGCGTAGAATGAAGG DNA 2: CCTTCATTCTACGCTGTCAATCGCTTCGGGTGGGTATACTCACCTTCGACCTTTTGATGC | 3.23 PBM z-score against 500 random probes | 3.15 PBM z-score against 500 random probes | – | –
NRC3_wobSeed120_DR4_T13C_o1 (dsDNA) DNA 1: GCCCGAGTAGGTCACGAGGGGGCATTCAGTGCGAATGCGATTGACAGCGTAGAATGAAGG DNA 2: CCTTCATTCTACGCTGTCAATCGCATTCGCACTGAATGCCCCCTCGTGACCTACTCGGGC | 7.01 PBM z-score against 500 random probes | 6.39 PBM z-score against 500 random probes | – | –

— PMC6555819, “Comprehensive study of nuclear receptor DNA binding provides a revised framework for understanding receptor specificity”
